We go through 8 variants from article PMC8604728.

The labels stand for the following.
B1: unnamed (parent)
chain 1: DYMGWMDF
chain 2: MDVVDSLLVNGSNITPPCELGLENETLFCLDQPRPSKEWQPAVQILLYSLIFLLSVLGNTLVITVLIRNKRMRTVTNIFLLSLAVSDLMLCLFCMPFNLIPNLLKDFIFGSAVCKTTTYFMGTSVSVSTFNLVAISLERYGAICKPLQSRVWQTKSHALKVIAATWCLSFTIMTPYPIYSNLVPFTKNNNQTANMCRFLLPNDVMQQSWHTFLLLILFLIPGIVMMVAYGLISLELYQGIKFEASQKKSAKERKPSTTSSGKYEDSDGCYLQKTRPPRKLELRQLSTGSSSRANRIRSNSSAANLMAKKRVIRMLIVIVVLFFLCWMPIFSANAWRAYDTASAERRLSGTPISFILLLSYTSSCVNPIIYCFMNKRFRLGFMATFPCCPNPGPPGARGEVGEEEEGGTTGASLSRFSYSHMSASVPPQ

In this assay the parent is B1. Kind of assay: radiolabeled ligand-binding assay (competition with unlabeled CCK-8). As to conditions: upper plateau of the fitted competition curve at the lowest CCK-8 concentration (log [CCK-8] = -12), read off a plot.
chain 2 MDVVDSLLVNGSNITPPCELGLENETLFCLDQPRPSKEWQPAVQILLYSLIFLLSVLGNTLVITVLIRNKRMRTVTNIFLLSLAVSDLMLCLFCMPFNLIPNLLKDFIFGSAVCKTTTYFMGTSVSVSTFNLVAISLERYGAICKPLQSRVWQTKSHALKVIAATWCLSFTIMTPYPIYSNLVPFTKNNNQTANMCRFLLPNDVMQQSWATFLLLILFLIPGIVMMVAYGLISLELYQGIKFEASQKKSAKERKPSTTSSGKYEDSDGCYLQKTRPPRKLELRQLSTGSSSRANRIRSNSSAANLMAKKRVIRMLIVIVVLFFLCWMPIFSANAWRAYDTASAERRLSGTPISFILLLSYTSSCVNPIIYCFMNKRFRLGFMATFPCCPNPGPPGARGEVGEEEEGGTTGASLSRFSYSHMSASVPPQ [chain 2 H210A]: the percent of parent was determined as 70 % WT.
Take chain 2 MDVVDSLLVNGSNITPPCELGLENETLFCLDQPRPSKEWQPAVQILLYSLIFLLSVLGNTLVITVLIRNKRMRTVTNIFLLSLAVSDLMLCLFCMPFNLIPNLLADFIFGSAVCKTTTYFMGTSVSVSTFNLVAISLERYGAICKPLQSRVWQTKSHALKVIAATWCLSFTIMTPYPIYSNLVPFTKNNNQTANMCRFLLPNDVMQQSWHTFLLLILFLIPGIVMMVAYGLISLELYQGIKFEASQKKSAKERKPSTTSSGKYEDSDGCYLQKTRPPRKLELRQLSTGSSSRANRIRSNSSAANLMAKKRVIRMLIVIVVLFFLCWMPIFSANAWRAYDTASAERRLSGTPISFILLLSYTSSCVNPIIYCFMNKRFRLGFMATFPCCPNPGPPGARGEVGEEEEGGTTGASLSRFSYSHMSASVPPQ [chain 2 K105A]: the percent of parent is 50 % WT.
Regarding chain 2 MDVVDSLLVNGSNITPPCELGLENETLFCLDQPRPSKEWQPAVQILLYSLIFLLSVLGNTLVITVLIRNKRMRTVTNIFLLSLAVSDLMLCLFCMPFNLIPNLLKDFIFGSAVCKTTTYFMGTSVSVSTFNLVAISLERYGAICKPLQSRVWQTKSHALKVIAATWCLSFTIMTPYPIYSNLVPFTKNNNQTANACRFLLPNDVMQQSWHTFLLLILFLIPGIVMMVAYGLISLELYQGIKFEASQKKSAKERKPSTTSSGKYEDSDGCYLQKTRPPRKLELRQLSTGSSSRANRIRSNSSAANLMAKKRVIRMLIVIVVLFFLCWMPIFSANAWRAYDTASAERRLSGTPISFILLLSYTSSCVNPIIYCFMNKRFRLGFMATFPCCPNPGPPGARGEVGEEEEGGTTGASLSRFSYSHMSASVPPQ [chain 2 M195A], the percent of parent was found to be 30 % WT.
In the case of chain 2 MDVVDSLLVNGSNITPPCELGLENETLFCLDQPRPSKEWQPAVQILLYSLIFLLSVLGNTLVITVLIRNKRMRTVTNIFLLSLAVSDLMLCLFCMPFNLIPNLLKDFIFGSAVCKTTTYFAGTSVSVSTFNLVAISLERYGAICKPLQSRVWQTKSHALKVIAATWCLSFTIMTPYPIYSNLVPFTKNNNQTANMCRFLLPNDVMQQSWHTFLLLILFLIPGIVMMVAYGLISLELYQGIKFEASQKKSAKERKPSTTSSGKYEDSDGCYLQKTRPPRKLELRQLSTGSSSRANRIRSNSSAANLMAKKRVIRMLIVIVVLFFLCWMPIFSANAWRAYDTASAERRLSGTPISFILLLSYTSSCVNPIIYCFMNKRFRLGFMATFPCCPNPGPPGARGEVGEEEEGGTTGASLSRFSYSHMSASVPPQ [chain 2 M121A], the percent of parent stood at 230 % WT.
In the case of chain 2 MDVVDSLLVNGSNITPPCELGLENETLFCLDQPRPSKEWQPAVQILLYSLIFLLSVLGNTLVITVLIRNKRMRTVTNIFLLSLAVSDLMLCLFCMPFNLIPNLLKDFIFGSAVCKTTAYFMGTSVSVSTFNLVAISLERYGAICKPLQSRVWQTKSHALKVIAATWCLSFTIMTPYPIYSNLVPFTKNNNQTANMCRFLLPNDVMQQSWHTFLLLILFLIPGIVMMVAYGLISLELYQGIKFEASQKKSAKERKPSTTSSGKYEDSDGCYLQKTRPPRKLELRQLSTGSSSRANRIRSNSSAANLMAKKRVIRMLIVIVVLFFLCWMPIFSANAWRAYDTASAERRLSGTPISFILLLSYTSSCVNPIIYCFMNKRFRLGFMATFPCCPNPGPPGARGEVGEEEEGGTTGASLSRFSYSHMSASVPPQ [chain 2 T118A] it was 110 % WT; in that of chain 2 MDVVDSLLVNGSNITPPCELGLENETLFCLDQPRPSKEWQPAVQILLYSLIFLLSVLGNTLVITVLIRNKRMRTVTNIFLLSLAVSDLMLCLFCMPFNLIPNLLKDFIFGSAVCKTTTYFMGTSVSVSTFNLVAISLERYGAICKPLQSRVWQTKSHALKVIAATWCLSFTIMTPYPIYSNLVPATKNNNQTANMCRFLLPNDVMQQSWHTFLLLILFLIPGIVMMVAYGLISLELYQGIKFEASQKKSAKERKPSTTSSGKYEDSDGCYLQKTRPPRKLELRQLSTGSSSRANRIRSNSSAANLMAKKRVIRMLIVIVVLFFLCWMPIFSANAWRAYDTASAERRLSGTPISFILLLSYTSSCVNPIIYCFMNKRFRLGFMATFPCCPNPGPPGARGEVGEEEEGGTTGASLSRFSYSHMSASVPPQ [chain 2 F185A], 15 % WT; in that of chain 2 MDVVDSLLVNGSNITPPCELGLENETLFCLDQPRPSKEWQPAVQILLYSLIFLLSVLGNTLVITVLIRNKRMRTVTNIFLLSLAVSDLMLCLFCMPFNLIPNLLKDFIFGSAVCKTTTYFMGTSASVSTFNLVAISLERYGAICKPLQSRVWQTKSHALKVIAATWCLSFTIMTPYPIYSNLVPFTKNNNQTANMCRFLLPNDVMQQSWHTFLLLILFLIPGIVMMVAYGLISLELYQGIKFEASQKKSAKERKPSTTSSGKYEDSDGCYLQKTRPPRKLELRQLSTGSSSRANRIRSNSSAANLMAKKRVIRMLIVIVVLFFLCWMPIFSANAWRAYDTASAERRLSGTPISFILLLSYTSSCVNPIIYCFMNKRFRLGFMATFPCCPNPGPPGARGEVGEEEEGGTTGASLSRFSYSHMSASVPPQ [chain 2 V125A], 75 % WT.
As for chain 2 MDVVDSLLVNGSNITPPCELGLENETLFCLDQPRPSKEWQPAVQILLYSLIFLLSVLGNTLVITVLIRNKRMRTVTNIFLLSLAVSDLMLCLFCMPFNLIPNLLKDFIFGSAVCKTTTYFMGTSVSVSTFNLVAISLERYGAICKPLQSRVWQTKSHALKVIAATWCLSFTIMTPYPIYSNLVPFTKNNNQTANMCRFLLPNDVMQQSWHTFLLLILFLIPGIVMMVAYGLISLELYQGIKFEASQKKSAKERKPSTTSSGKYEDSDGCYLQKTRPPRKLELRQLSTGSSSRANRIRSNSSAANLMAKKRVIRMLIVIVVLFFLCWMPIFSANAWRAYDTASAERRLSGTPISFILLLSATSSCVNPIIYCFMNKRFRLGFMATFPCCPNPGPPGARGEVGEEEEGGTTGASLSRFSYSHMSASVPPQ [chain 2 Y360A], the percent of parent came out at 28 % WT.
